The source of these data is US20220402983A1 (Janssen / Centocor, published 2022).

The target of this test is T1, human IL-23R (interleukin-23 receptor) (human, UniProt Q5VWK5 24-629).
T1 sequence (looked up): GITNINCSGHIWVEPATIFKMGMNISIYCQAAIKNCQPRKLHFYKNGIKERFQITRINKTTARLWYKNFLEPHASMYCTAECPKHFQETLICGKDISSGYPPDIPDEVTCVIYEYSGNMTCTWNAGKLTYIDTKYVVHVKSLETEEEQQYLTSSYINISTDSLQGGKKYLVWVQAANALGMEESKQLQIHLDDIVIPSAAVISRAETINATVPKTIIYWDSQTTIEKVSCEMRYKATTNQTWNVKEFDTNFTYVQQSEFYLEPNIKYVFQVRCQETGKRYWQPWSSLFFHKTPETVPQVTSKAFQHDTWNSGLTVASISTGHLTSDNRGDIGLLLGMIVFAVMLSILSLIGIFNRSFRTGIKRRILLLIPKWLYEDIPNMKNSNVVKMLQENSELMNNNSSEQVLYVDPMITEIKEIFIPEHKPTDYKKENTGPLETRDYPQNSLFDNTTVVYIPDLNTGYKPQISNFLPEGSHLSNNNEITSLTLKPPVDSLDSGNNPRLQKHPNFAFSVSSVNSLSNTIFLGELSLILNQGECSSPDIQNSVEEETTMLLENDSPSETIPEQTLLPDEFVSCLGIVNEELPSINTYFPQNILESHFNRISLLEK
Nature of the test: cell-based or functional assay.

*1 amine or outer side, *2 acyl side, *3 side chain or, on linkers, in order; H or OH if unused. Bridges are numbered along the chain shown (N, C = ends). Where no end group is shown, it is not given here. [ ]: non-standard residue; d: D form. The star is where a group is joined. bMe2Nal(2S,3R) = beta-methyl-2-naphthylalanine (2S,3R), C[C@H](c1ccc2ccccc2c1)[C@H](N[*:1])C(=O)[*:2]; 4AcDPhe = D-(4-acyl)phenylalanine, CC(=O)c1ccc(C[C@@H](N[*:1])C(=O)[*:2])cc1; Trp(7-Ph) = N[C@@H](Cc1c[nH]c2c(-c3ccccc3)cccc12)C(=O)O; Trp(7-Me) = Cc1cccc2c(C[C@H](N)C(=O)O)c[nH]c12; Phe(3R-Me) = C[C@H](c1ccccc1)[C@H](N)C(=O)O; dPhe(4-NH2) = Nc1ccc(C[C@@H](N)C(=O)O)cc1; Phe(4-NH2) = Nc1ccc(C[C@H](N)C(=O)O)cc1; 2Nal = N[C@@H](Cc1ccc2ccccc2c1)C(=O)O; AEF = NCCOc1ccc(C[C@H](N)C(=O)O)cc1; αMeF = C[C@](N)(Cc1ccccc1)C(=O)O; Pen = CC(C)(S)[C@H](N)C(=O)O; αMeK = C[C@](N)(CCCCN)C(=O)O; αMeC = C[C@](N)(CS)C(=O)O; Thp = NC1(C(=O)O)CCOCC1; Abu = CC[C@H](N)C(=O)O; Ac3c = NC1(C(=O)O)CC1; BH = not defined here; Propionyl = CCC(=O)*

B1: Compound No. 314 (peptide)
peptide: Ac-[dR][Pen]NT[Trp(7-Me)]K(Ac)[Pen][AEF](BH)[2Nal][Thp]EN[αMeF]-NH2
modifications: disulfide 2-7; reading uncertain
Turning to B1, the “PBMC pSTAT3 IC50 (nM)” value was 75 nM.

B2: Compound No. 311 (peptide)
peptide: Ac-[Pen]NT[Trp(7-Me)]K(Ac)[Pen][4PipPhe][2Nal][αMeK]K(Ac)N[αMeF]-NH2
modifications: disulfide 1-6
For B2, the “PBMC pSTAT3 IC50 (nM)” value was 290 nM.

B3: Compound No. 17 (peptide)
peptide: Ac-[dR][Abu]QTWQC[AEF][2Nal][Thp]ENF-NH2
modifications: thioether 2-7
B3: the “PBMC pSTAT3 IC50 (nM)” value stood at 3.4 nM.

B4: Compound No. 315 (peptide)
peptide: Ac-[dR][Pen]NT[Trp(7-Me)]K(Ac)[Pen][AEF][2Nal][Ac3c]ENH[dPhe(4-NH2)]-NH2
modifications: disulfide 2-7
SMILES: CC(=O)NCCCC[C@@H]1NC(=O)[C@H](Cc2c[nH]c3c(C)cccc23)NC(=O)[C@H]([C@@H](C)O)NC(=O)[C@H](CC(N)=O)NC(=O)[C@@H](NC(=O)[C@@H](CCCNC(=N)N)NC(C)=O)C(C)(C)SSC(C)(C)[C@@H](C(=O)N[C@@H](Cc2ccc(OCCN)cc2)C(=O)N[C@@H](Cc2ccc3ccccc3c2)C(=O)NC2(C(=O)N[C@@H](CCC(=O)O)C(=O)N[C@@H](CC(N)=O)C(=O)N[C@@H](Cc3c[nH]cn3)C(=O)N[C@H](Cc3ccc(N)cc3)C(N)=O)CC2)NC1=O
With B4, the “PBMC pSTAT3 IC50 (nM)” value was 2 nM.

B5: Compound No. 12 (peptide)
peptide: RXQTWQCFXXENN
modifications: not fully specified; Ac-[(D)Arg]-[Abu]-Q-T-W-Q-[Cys]-Phe[4-(2-aminoethoxy)]-[2-Nal]-[THP]-E-N-N-ac; cyclized: Abu-Cys thioether bond
Consider B5, for which the “PBMC pSTAT3 IC50 (nM)” value was found to be 20 nM.

B6: Compound No. 20 (peptide)
peptide: [dR]CQTWQ[Pen][AEF][2Nal][Thp]EN[Thp]-NH2
modifications: disulfide 2-7; not fully specified (N-terminus)
For B6, the “PBMC pSTAT3 IC50 (nM)” value was 3.1 nM.

B7: Compound No. 306 (peptide)
peptide: Ac-[dR][Pen]NT[Trp(7-Me)][Phe(4-NH2)](Ac)[Pen][AEF][2Nal][Ac3c]EN[Thp]-NH2
modifications: disulfide 2-7
SMILES: CC(=O)Nc1ccc(C[C@@H]2NC(=O)[C@H](Cc3c[nH]c4c(C)cccc34)NC(=O)[C@H]([C@@H](C)O)NC(=O)[C@H](CC(N)=O)NC(=O)[C@@H](NC(=O)[C@@H](CCCNC(=N)N)NC(C)=O)C(C)(C)SSC(C)(C)[C@@H](C(=O)N[C@@H](Cc3ccc(OCCN)cc3)C(=O)N[C@@H](Cc3ccc4ccccc4c3)C(=O)NC3(C(=O)N[C@@H](CCC(=O)O)C(=O)N[C@@H](CC(N)=O)C(=O)NC4(C(N)=O)CCOCC4)CC3)NC2=O)cc1
Turning to B7, the “PBMC pSTAT3 IC50 (nM)” value amounted to 9.6 nM.

B8: Compound No. 310 (peptide)
peptide: Ac-[dR]CNT[Trp(7-Me)]K(Ac)[αMeC][AEF][2Nal][Ac3c]EN[Thp]-NH2
modifications: disulfide 2-7
SMILES: CC(=O)NCCCC[C@@H]1NC(=O)[C@H](Cc2c[nH]c3c(C)cccc23)NC(=O)[C@H]([C@@H](C)O)NC(=O)[C@H](CC(N)=O)NC(=O)[C@@H](NC(=O)[C@@H](CCCNC(=N)N)NC(C)=O)CSSC[C@@](C)(C(=O)N[C@@H](Cc2ccc(OCCN)cc2)C(=O)N[C@@H](Cc2ccc3ccccc3c2)C(=O)NC2(C(=O)N[C@@H](CCC(=O)O)C(=O)N[C@@H](CC(N)=O)C(=O)NC3(C(N)=O)CCOCC3)CC2)NC1=O
Regarding B8, the “PBMC pSTAT3 IC50 (nM)” value was determined as 9.9 nM.

B9: Compound No. 309 (peptide)
peptide: Ac-[dR][Pen]NT[Trp(7-Me)]K(Ac)[Pen][AEF][2Nal][Ac3c]ENHX-NH2
modifications: disulfide 2-7; not fully specified (residue 14); printed as MeCO-F[(D)Arg]-Pen-N -T-7MeW-K(Ac)-Pen-AEF-2Nal-Acpx-E-N-H-paf-CONH2
Take B9: the “PBMC pSTAT3 IC50 (nM)” value came to 8 nM.

B10: Compound No. 313 (peptide)
peptide: Ac-[dR][Pen]NT[Trp(7-Me)]K(Ac)[Pen][AEF][2Nal][Thp]EN[Phe(3R-Me)]-NH2
modifications: disulfide 2-7
SMILES: CC(=O)NCCCC[C@@H]1NC(=O)[C@H](Cc2c[nH]c3c(C)cccc23)NC(=O)[C@H]([C@@H](C)O)NC(=O)[C@H](CC(N)=O)NC(=O)[C@@H](NC(=O)[C@@H](CCCNC(=N)N)NC(C)=O)C(C)(C)SSC(C)(C)[C@@H](C(=O)N[C@@H](Cc2ccc(OCCN)cc2)C(=O)N[C@@H](Cc2ccc3ccccc3c2)C(=O)NC2(C(=O)N[C@@H](CCC(=O)O)C(=O)N[C@@H](CC(N)=O)C(=O)N[C@H](C(N)=O)[C@H](C)c3ccccc3)CCOCC2)NC1=O
As to B10, the “PBMC pSTAT3 IC50 (nM)” value was determined as 21 nM.

B11: Compound No. 11 (peptide)
peptide: Ac-[dR][Abu]QT[Trp(7-Ph)]K(Ac)C[AEF][2Nal][αMeK]K(Ac)N[αMeF]-NH2
modifications: thioether 2-7
Regarding B11, the “pStat3 HTRF (nM), IC50, DB cells IL23R pSTAT3 cell assay” value was determined as 13.9 nM.

B12: Compound No. 307 (peptide)
peptide: Propionyl-[dR][Pen]QTWQ[Pen][AEF][bMe2Nal(2S,3R)][Thp]EN[Thp]-NH2
modifications: disulfide 2-7
SMILES: CCC(=O)N[C@H](CCCNC(=N)N)C(=O)N[C@@H]1C(=O)N[C@@H](CCC(N)=O)C(=O)N[C@@H]([C@@H](C)O)C(=O)N[C@@H](Cc2c[nH]c3ccccc23)C(=O)N[C@@H](CCC(N)=O)C(=O)N[C@H](C(=O)N[C@@H](Cc2ccc(OCCN)cc2)C(=O)N[C@H](C(=O)NC2(C(=O)N[C@@H](CCC(=O)O)C(=O)N[C@@H](CC(N)=O)C(=O)NC3(C(N)=O)CCOCC3)CCOCC2)[C@H](C)c2ccc3ccccc3c2)C(C)(C)SSC1(C)C
For B12, the “PBMC pSTAT3 IC50 (nM)” value stood at 52 nM.

B13: Compound No. 312 (peptide)
peptide: XNTXKXXXKKNF
modifications: MeCO-Pen-N-T-7MeTrp-K(Ac)-Pen-AEF-2Nal-aMeK-K(Ac)-N-bMePhe(S,R)-CONH2; cyclized: Pen-Pen disulfide bond
Turning to B13, the “PBMC pSTAT3 IC50 (nM)” value was determined as 90 nM.

B14: Compound No. 317 (peptide)
peptide: XNTXKXXXXENX
modifications: MeCO-Pen-N-T-7MeW-K(Ac)-Pen-AEF-2Nal-Acpx-E-N-THP---CONH2; cyclized: Pen-Pen disulfide bond
For the molecule B14, the “PBMC pSTAT3 IC50 (nM)” value was found to be 13 nM.

B15: Compound No. 316 (peptide)
peptide: Ac-[dR][Pen]NT[Trp(7-Me)]K(Ac)[Pen][AEF][2Nal][Ac3c]ENH[4AcDPhe]-NH2
modifications: disulfide 2-7
SMILES: CC(=O)NCCCC[C@@H]1NC(=O)[C@H](Cc2c[nH]c3c(C)cccc23)NC(=O)[C@H]([C@@H](C)O)NC(=O)[C@H](CC(N)=O)NC(=O)[C@@H](NC(=O)[C@@H](CCCNC(=N)N)NC(C)=O)C(C)(C)SSC(C)(C)[C@@H](C(=O)N[C@@H](Cc2ccc(OCCN)cc2)C(=O)N[C@@H](Cc2ccc3ccccc3c2)C(=O)NC2(C(=O)N[C@@H](CCC(=O)O)C(=O)N[C@@H](CC(N)=O)C(=O)N[C@@H](Cc3c[nH]cn3)C(=O)N[C@H](Cc3ccc(C(C)=O)cc3)C(N)=O)CC2)NC1=O
In the case of B15, the “PBMC pSTAT3 IC50 (nM)” value came out at 2.1 nM.

B16: Compound No. 308 (peptide)
peptide: Ac-[dR][Pen]NT[Trp(7-Me)]K(Ac)[Pen][AEF](Ac)[2Nal][Ac3c]EN[Thp]-NH2
modifications: disulfide 2-7
SMILES: CC(=O)NCCCC[C@@H]1NC(=O)[C@H](Cc2c[nH]c3c(C)cccc23)NC(=O)[C@H]([C@@H](C)O)NC(=O)[C@H](CC(N)=O)NC(=O)[C@@H](NC(=O)[C@@H](CCCNC(=N)N)NC(C)=O)C(C)(C)SSC(C)(C)[C@@H](C(=O)N[C@@H](Cc2ccc(OCCNC(C)=O)cc2)C(=O)N[C@@H](Cc2ccc3ccccc3c2)C(=O)NC2(C(=O)N[C@@H](CCC(=O)O)C(=O)N[C@@H](CC(N)=O)C(=O)NC3(C(N)=O)CCOCC3)CC2)NC1=O
With B16, the “PBMC pSTAT3 IC50 (nM)” value was found to be 8 nM.
